tested on: Bacillus subtilis; experiment: cleaved RNA product abundance (RNA/gDNA barcode ratio) relative to median wild-type variant (ratio to wild type); higher = more accumulation of the downstream cleavage product; details: experiment (reporter, strain, medium): exp 8a: truncated aprE reporter, strain BJT201 with 2% xylose (RNase J1 expressed); cleavage site: glnRA (positions -5 to +31 mutated)
Summary of the method: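 Cleaved product abundance is expressed as the RNA:gDNA barcode ratio per construct, scaled to the median construct carrying the unmutated site. The constructs were barcoded, mutagenized RNase Y cleavage-site windows in truncated aprE or tetM reporter mRNAs integrated into the B. subtilis chromosome. Cultures grew in LB at 37°C from OD600 0.0003 to 0.3 before cleaved RNA was gel-selected and barcode-sequenced.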

In order of falling “cleaved RNA product abundance” value:
1. CGACATGTCCCGCTTCTTTCATTAATCTGTTAGCAACTGTTTTGCTATATACATTTACCATTTAAGAGGAGGAAT  2.04
2. CGACATGTCCCGCTTCTTTCATTAATCTGTTAGCAACTATTTTGCTATATACATTTACCTTTTAAGAGGAGGAAT  1.77
3. CGACATGTCCCGCTTCTTTCATTAATCTGTTAGCAACTGTTTTGCTATATACATTTACTTTTTAAGAGGAGGAAT  1.68
4. CGACATGTCCCGCTTCTTTCATTAATCTGTTAGCAATTGTTTTGCTATATACATTTACCTTTTAAGAGGAGGAAT  1.59
5. CGACATGTCCCGCTTCTTTCATTAATCGGTTAGCAACTGTTTTGCTATATACATTAACCTTTTAAGAGGAGGAAT  1.51
6. CGACATGTCCCGCTTCTTTCATTAATCTGTTAGCAACTGTTTTGCTATATACATTTACATTTTAAGAGGAGGAAT  1.2
7. CGACATGTCCCGCTTCTTTCATTAATCTGTTAGCAACTGTTTTGCTATATACATTTACCTTTTAAGAGGAGGAAT  1.16
8. CGACATGTCCCGCTTCTTTCATTAATCTGTTAGCAACTGTTTTGCTAAATACATTTACCTTTTAAGAGGAGGAAT  1.01
9. CGACATGTCCCGCTTCTTTCATTAATCTGTTAGCAACTGTTTTGCTATATAAATTTACCTTTTAAGAGGAGGAAT  0.994
10. CGACATGTCCCGCTTCTTTCATTAATCTGTTAGCAACTGTTTTGCTATATACATCTACCTTTTAAGAGGAGGAAT  0.993
11. CGACATGTCCCGCTTCTTTCATTAATCTGTTAGCAACTGTTTTGCTATATACATTGACCTTTTAAGAGGAGGAAT  0.991
12. CGACATGTCCCGCTTCTTTCATTAATCTGTTAGCAACTGTTTTGCTATATACATTTATCTTTTAAGAGGAGGAAT  0.969
13. CGACATGTCCCGCTTCTTTCATTAATCTGTTAGCAACTGTTTTGCTATAGACATTTACCTTTTAAGAGGAGGAAT  0.968
14. CGACATGTCCCGCTTCTTTCATTAATCGGTTAGCAACTGTTTTGCTATATATATTTACCTTTTAAGAGGAGGAAT  0.947
15. CGACATGTCCCGCTTCTTTCATTAATCGGTTAGCAACAGTTTTGCTATATACATTTACCTTTTAAGAGGAGGAAT  0.927
16. CGACATGTCCCGCTTCTTTCATTAATCTGTTAGCAACTGTTTTGCTATAAACATTTACCTTTTAAGAGGAGGAAT  0.917
17. CGACATGTCCCGCTTCTTTCATTAATCCTTTAGCAACTGTTTTGCTATATATATTTACCTTTTAAGAGGAGGAAT  0.909
18. CGACATGTCCCGCTTCTTTCATTAATCTGTTAGCAACTGTTTTGCTATATACAATTACCTTTTAAGAGGAGGAAT  0.89
19. CGACATGTCCCGCTTCTTTCATTAATCGGTTAGCAACTGTTTTGCTATAAACATTTACCTTTTAAGAGGAGGAAT  0.876
20. CGACATGTCCCGCTTCTTTCATTAATCTGTTAGCAACTGTTTTGCTATATACATATACCTTTTAAGAGGAGGAAT  0.829
21. CGACATGTCCCGCTTCTTTCATTAATCCTTTAGCAACTGTTTTGCTATATACATTTATCTTTTAAGAGGAGGAAT  0.826
22. CGACATGTCCCGCTTCTTTCATTAATCCTTTAGCAAGTGTTTTGCTATATACATTTACCTTTTAAGAGGAGGAAT  0.82
23. CGACATGTCCCGCTTCTTTCATTAATCTGATAGCAACTGTTTTGCTATATACATTTACCTTTTAAGAGGAGGAAT  0.81
24. CGACATGTCCCGCTTCTTTCATTAATCTGTTAGCAACTGTTATGCTATATACATTTACCTTTTAAGAGGAGGAAT  0.799
25. CGACATGTCCCGCTTCTTTCATTAATCGATTAGCAACTGTTTTGCTATATACATTTACCTTTTAAGAGGAGGAAT  0.79
26. CGACATGTCCCGCTTCTTTCATTAATCTGTGAGCAACTGTTTTGCTATATACATTTACCTTTTAAGAGGAGGAAT  0.777
27. CGACATGTCCCGCTTCTTTCATTAATCTGTTAGCTACTGTTTTGCTATATACATTTACCTTTTAAGAGGAGGAAT  0.743
28. CGACATGTCCCGCTTCTTTCATTAATCTGTTAGCAACTGTTTTGCTATATACTTTTACCTTTTAAGAGGAGGAAT  0.728
29. CGACATGTCCCGCTTCTTTCATTAATCTGTTAGCAACTGTTTAGCTATATACATTTACCTTTTAAGAGGAGGAAT  0.727
30. CGACATGTCCCGCTTCTTTCATTAATCTGTTAGCAACTTTTTTGCTATATACATTTACCTTTTAAGAGGAGGAAT  0.706
31. CGACATGTCCCGCTTCTTTCATTAATCTGTTAGCAACAGTTTTGCTATATACATTTACCTTTTAAGAGGAGGAAT  0.686
32. CGACATGTCCCGCTTCTTTCATTAATCGGTTAGCAACTGTTTTGCTATATACATTTACCTTTTAAGAGGAGGAAT  0.613
33. CGACATGTCCCGCTTCTTTCATTAATCCTTTAGCAACTGTTTTGCTATATACATTTACCTTTTAAGAGGAGGAAT  0.612
34. CGACATGTCCCGCTTCTTTCATTAATCTGTTAGCAACTGTTTTGCTATATAGATTTACCTTTTAAGAGGAGGAAT  0.587
35. CGACATGTCCCGCTTCTTTCATTAATCTGTTAGCAACTGTTATCCTATATACATTTACCTTTTAAGAGGAGGAAT  0.577
36. CGACATGTCCCGCTTCTTTCATTAATCTGTTAGCAACTGTTTTGATATATACATTTACCTTTTAAGAGGAGGAAT  0.562
37. CGACATGTCCCGCTTCTTTCATTAATCCTTTAGCAACTGTTTTGTTATATACATTTACCTTTTAAGAGGAGGAAT  0.553
38. CGACATGTCCCGCTTCTTTCATTAATCTGTTAGCAACTGTTTTACTATATACATTTACCTTTTAAGAGGAGGAAT  0.541
39. CGACATGTCCCGCTTCTTTCATTAATCTGTAAGCAACTGTTTTGCTATATACATTTACCTTTTAAGAGGAGGAAT  0.539
40. CGACATGTCCCGCTTCTTTCATTAATCCTTTAGCATCTCTTTTGCTATATACATTTACCTTTTAAGAGGAGGAAT  0.512
41. CGACATGTCCCGCTTCTTTCATTAATCTGTTAGCAACTGTTTTGCTATATACATTCACCTTTTAAGAGGAGGAAT  0.488
42. CGACATGTCCCGCTTCTTTCATTAATCTGTTAGCAACTGTTTTTCTATATACATTTACCTTTTAAGAGGAGGAAT  0.483
43. CGACATGTCCCGCTTCTTTCATTAATCCTTTAGCAACTGTTTTTCTATATACATTTACCTTTTAAGAGGAGGAAT  0.478
44. CGACATGTCCCGCTTCTTTCATTAATCTGTTAGCAACTGTTTGGCTATATACATTTACCTTTTAAGAGGAGGAAT  0.476
45. CGACATGTCCCGCTTCTTTCATTAATCTGTTAGCAACCGTTTTGCTATATACATTTACCTTTTAAGAGGAGGAAT  0.436
46. CGACATGTCCCGCTTCTTTCATTAATCCTTTAGTAACTGTTTTGCTATATACATTTACCTTTTAAGAGGAGGAAT  0.378
47. CGACATGTCCCGCTTCTTTCATTAATCTGTTAGCAACTGTTCTGCTATATACATTTACCTTTTAAGAGGAGGAAT  0.368
48. CGACATGTCCCGCTTCTTTCATTAATCGGTTAGCAACTGTTTTGATATATACATTTACCTTTTAAGAGGAGGAAT  0.356
49. CGACATGTCCCGCTTCTTTCATTAATCGGTTAGCAACTGTTTTGCAATATACATTTACCTTTTAAGAGGAGGAAT  0.349
50. CGACATGTCCCGCTTCTTTCATTAATCCTTTAGCAACTGTTTTGCTATATACATTTCCCTTTTAAGAGGAGGAAT  0.343
51. CGACATGTCCCGCTTCTTTCATTAATCGCTTAGCAACTGTTTTGCTATATACATTTACCTTTTAAGAGGAGGAAT  0.335
52. CGACATGTCCCGCTTCTTTCATTAATCTATTAGCAACTGTTTTGCTATTTACATTTACCTTTTAAGAGGAGGAAT  0.311
53. CGACATGTCCCGCTTCTTTCATTAATCCTTTCGCAACTGTTTTGCTATATACATTTACCTTTTAAGAGGAGGAAT  0.299
54. CGACATGTCCCGCTTCTTTCATTAATCTGTTAGAAACTGTTTTGCTATATACATTTACCTTTTAAGAGGAGGAAT  0.269
55. CGACATGTCCCGCTTCTTTCATTAATCTGTTAGCAACTGTTTTGGTATATACATTTACCTTTTAAGAGGAGGAAT  0.264
56. CGACATGTCCCGCTTCTTTCATTAATCTGTTAGCAACTGTTTTGCTATATCCATTTACCTTTTAAGAGGAGGAAT  0.263
57. CGACATGTCCCGCTTCTTTCATTAATCCTTTAGCCACTGTTTTGCTATATACATTTACCTTTTAAGAGGAGGAAT  0.253
58. CGACATGTCCCGCTTCTTTCATTAATCTGTTAGCAACTGTTTTGCTATATACAGTTACCTTTTAAGAGGAGGAAT  0.249
59. CGACATGTCCCGCTTCTTTCATTAATCTGTTAGCAACTGTTTTGCTTTATACATTTACCTTTTAAGAGGAGGAAT  0.247
60. CGACATGTCCCGCTTCTTTCATTAATCTGTTAACAACTGTTTTGCTATATACATTTACCTTTTAAGAGGAGGAAT  0.238
61. CGACATGTCCCGCTTCTTTCATTAATCGGTTAGAAACTGTTTTGCTATATACATTTACCTTTTAAGAGGAGGAAT  0.222
62. CGACATGTCCCGCTTCTTTCATTAATCGGTTAACAAATGTTGTGCTATAGACATTTACCTTTTAAGAGGAGGAAT  0.209
63. CGACATGTCCCGCTTCTTTCATTAATCGGTTATCAACTGTTTTGCTATATACATTTACCTTTTAAGAGGAGGAAT  0.206
64. CGACATGTCCCGCTTCTTTCATTAATCCTTTAGCAACTGTTTTGCTTTATACATTTACCTTTTAAGAGGAGGAAT  0.174
65. CGACATGTCCCGCTTCTTTCATTAATCGGTTAGCAACTGTTTTGCTATCTACATTTACCTTTTAAGAGGAGGAAT  0.132
66. CGACATGTCCCGCTTCTTTCATTAATCTGTTAGCAACTGTTTTGCCATATACATTTACCTTTTAAGAGGAGGAAT  0.108

Reference: the supplement of paper PMC11780869
